Test results as given in PMC9405658.

Biological target: YadA (Yersinia adhesin A) displayed on E. coli BL21 DE3 cells (Yersinia enterocolitica) (UniProt P0C2W0)
Experiment: fluorescence cell-binding assay (eluted FAM-aptamer)
Details: 1.4 mM Mg2+; whole cells; authors say true Kd for pure YadA is probably higher; Kd: PBS 1x pH 7.4 (137 mM NaCl, 2.7 mM KCl, 8 mM Na2HPO4, 2 mM KH2PO4) + 1.4 mM MgCl2, 37 C, 75 min, 0-100 nM aptamer; sensor: inactivated cells in PBS 1x pH 7.

Chain of UniProt P0C2W0 (P0C2W0 whole entry): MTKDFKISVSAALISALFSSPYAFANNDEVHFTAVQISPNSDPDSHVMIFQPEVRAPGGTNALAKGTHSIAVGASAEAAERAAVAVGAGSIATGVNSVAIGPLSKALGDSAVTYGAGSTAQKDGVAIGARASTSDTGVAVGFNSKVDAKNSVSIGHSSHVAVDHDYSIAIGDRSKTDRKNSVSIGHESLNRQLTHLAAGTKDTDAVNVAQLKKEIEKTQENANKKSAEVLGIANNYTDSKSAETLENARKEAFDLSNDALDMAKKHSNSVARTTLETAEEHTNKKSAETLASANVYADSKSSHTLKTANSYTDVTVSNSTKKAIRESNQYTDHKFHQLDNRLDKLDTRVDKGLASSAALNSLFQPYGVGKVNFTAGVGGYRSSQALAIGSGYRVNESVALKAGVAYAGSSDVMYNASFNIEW

ATCCAGAGTGACGCAGCATGACAGACGGGAGAGACACGACGGGGGCGGGGAGTGAGAAGCGCGCGCTGAATGTCGTTGGTGGCCC [Apt1 (FAM)]
Kd: 11 nM
